Screen value data for 3 variants are collected here from paper PMC8570500 (2021).

Sequences and labels used below:
B1: HA-Vpx HIV-2.Gh1 WT [HIV-2 (Ghana-1 strain)] / DCAF1, endogenous (DDB1- and Cul4A-associated factor 1) [human (endogenous in HeLa)] (parent complex)
chain 1: MTDPRERVPPGNSGEETIGEAFEWLDRTIEALNREAVNHLPRELIFQVWQRSWRYWHDDQGMSPSYTKYRYLCLMQKAVFIHFKRGCTCLGGGHGPGGWRSGPPPPPPPGLV
chain 2: not shown

In one test the parent is B1. Put plainly: co-immunoprecipitation (anti-Flag IP of TASOR-Flag, western blot band quantification); Ternary read-out: endogenous DCAF1 recovered with TASOR-Flag (m24) in the presence of this HA-Vpx mutant, HeLa cells; lane 11; no value printed for the WT lane. A general note: In western blotting, separated proteins are transferred to a membrane and probed.
For the variant chain 1 V48A, the screen value amounted to 0.5.

The next test covers variants of B1. Put plainly: co-immunoprecipitation (anti-Flag IP of TASOR-Flag, western blot band quantification); Ternary read-out: endogenous DCAF1 recovered with TASOR-Flag (m24) in the presence of this HA-Vpx mutant, HeLa cells; lane 10; no value printed for the WT lane.
For the variant chain 1 Q47A, the screen value was found to be 1.

Variants of B1 are the subject of the next test. Put plainly: co-immunoprecipitation (anti-Flag IP of TASOR-Flag, western blot band quantification); Ternary read-out: endogenous DCAF1 recovered with TASOR-Flag (m24) in the presence of this HA-Vpx mutant, HeLa cells; lane 12; no value printed for the WT lane.
chain 1 Q47A, chain 1 V48A: the screen value stood at 0.2.
